This passage reports binding result, koff and t½ diss results from patent US20170096487A1 (VENTANA MEDICAL SYSTEMS, published 2017).

Test [1] has as its target T1, HER1 (UniProt P00533 25-1210, limits assumed).
T1 construct: whole, on cells; also called EGFR
In words: Western blot on lysates of transfected HEK293 cells, RT and 37 C. The procedure: Lysates were prepared from several HEK293 control cell lines. The cells were transiently transfected with plasmids coding for HER1, HER2, HER3 or HER4. HEK293 cells transfected with the mammalian expression vector pRK5 were used as negative control. For western blotting 10 μg protein lysates were loaded per lane on 4-12% NuPage SDS gels (Invitrogen). Western blotting was performed according to standard protocols with standard NuPage buffers and reagents (Invitrogen). After blocking the membrane was incubated with MAK<humanHER3> M-7.2.42, MAK<humanHER3> M-7.3.8 or the HER3 monoclonal antibody DAK-H3-IC from Dako. MAK<humanHER3> M-7.2.42 and MAK<humanHER3> M-7.3.8 were used at a concentration of lng/ml. Primary antibody incubation was performed for 60 min at RT and at 37° C. HRP-conjugated anti-mouse Fab was used as secondary antibody. The dilution of DAK-H3-IC antibody was made as recommended by its manufacturer and the choice of secondary (detection) antibody was adapted as required. The membrane was developed with ECL (Amersham) and exposed to an x-ray film.
Background: Immunoblotting shows a protein as a band on a membrane.

Test [2] addresses T2, HER2 (UniProt P04626 23-1255, limits assumed).
T2 construct: whole, on cells
Description: IHC on FFPE transfected HEK293 cells, Ventana Benchmark XT. The procedure:
(§1) The suitability of the newly developed HER3 monoclonal antibodies MAK<humanHER3> M-7.2.42 and MAK<humanHER3> M-7.3.8 was shown using FFPE cell line controls. Therefore HER1, HER2, HER3 or HER4 transfected or untransfected HEK293 cells, respectively, were fixed with 4% PBS buffered formaldehyde and were subsequently embedded in paraffin.
(§2) All staining procedures were performed on the Ventana Benchmark XT automated IHC stainer using Ventana buffers and reagents, i.e., amongst others, the standard cell conditioning 1 (CC1) reagent for sample preparation and ultraView DAB as detection system.
(§3) As obvious from FIG. 3 the newly developed HER3 monoclonal antibodies MAK<humanHER3> M-7.2.42 and MAK<humanHER3> M-7.3.8 show specific membrane staining only on HER3 transfected cells. HER1, HER2 and HER4-transfected cells and control cells are negative. HER3 monoclonal antibodies MAK<humanHER3> M-7.2.42 and MAK<humanHER3> M-7.3.8 show good IHC-staining with HER3 transfected cells if used according to standard protocols on the Ventana Benchmark XT analyzer (see FIG. 3, HER3 captioned cell staining).

The target of test [3] is T3, HER4 (UniProt Q15303 26-1308, limits assumed).
T3 construct: whole, on cells
The test is described as above. The procedure:
as §1, §2, §3

For test [4], the target named is T4, biotinylated HER3 peptide (screening peptide with a sequence corresponding to the immunogen).
T4 construct: Synthetic peptide of HER3; also called HER3 antigen peptide; peptide-graft
In words: Biacore A100 SPR, antibody captured from hybridoma supernatant on anti-mouse Fc, streptavidin-grafted biotinylated HER3 peptide as analyte, 25 C. The procedure:
For selection of suitable antibodies, a kinetic screening was performed on hybridoma culture supernatants. The measurements were done using Biacore SPR technology. The CM5 series S sensor chip was mounted into an A100 instrument (GE Healthcare, Biacore) and was hydrodynamically addressed in HBSN buffer (10 mM HEPES pH 7.4, 150 mM NaCl) according to the manufacturer's instructions. The system buffer was HBS-ET (10 mM HEPES pH 7.4, 150 mM NaCl, 0.05% TWEEN 20). The sample buffer was the system buffer supplemented with 1 mg/ml CMD (Carboxymethyldextrane, Sigma #86524). The system was driven at 25° C.
10000 RU RAMIgGFC (relative units of rabbit-anti-mouse F(c)gamma-fragment of the respective mouse immunoglobulin G subclass/Jackson Laboratories) were immobilized according to the manufacturer's instructions using EDC/NHS chemistry on the flow cells FC1 (anti-mouse F(c)gamma of subclass 1), FC2, FC3 and FC4, respectively, on the sensitive spots 1, 2, 4 and 5 on each flow cell. The spots were deactivated using 1M ethanolamine.
The binding activity of antibodies against the HER3 peptide was kinetically tested. Antibodies were captured by a 1 min injection at 10 μl/min of crude hybridoma supernatants diluted 1:3 in sample buffer. Biotinylated Her-3 peptides were carefully singly grafted on streptavidin to enlarge the molecular weight of the complexes and to increase the mass sensitivity of the system. Since the antigen complex dissociation kd is independent of the analyte injection concentration, this is a legal method to increase the sensitivity of the system.
On the technique in general: In SPR one partner is held on a chip, and binding of the other changes the refractive index at the surface.

The target in test [5] is T1, HER1. Description: IHC on FFPE transfected HEK293 cells, Ventana Benchmark XT. As to the method: as §1, §2, §3

T3 sequence (Q15303 26-1308 limits assumed): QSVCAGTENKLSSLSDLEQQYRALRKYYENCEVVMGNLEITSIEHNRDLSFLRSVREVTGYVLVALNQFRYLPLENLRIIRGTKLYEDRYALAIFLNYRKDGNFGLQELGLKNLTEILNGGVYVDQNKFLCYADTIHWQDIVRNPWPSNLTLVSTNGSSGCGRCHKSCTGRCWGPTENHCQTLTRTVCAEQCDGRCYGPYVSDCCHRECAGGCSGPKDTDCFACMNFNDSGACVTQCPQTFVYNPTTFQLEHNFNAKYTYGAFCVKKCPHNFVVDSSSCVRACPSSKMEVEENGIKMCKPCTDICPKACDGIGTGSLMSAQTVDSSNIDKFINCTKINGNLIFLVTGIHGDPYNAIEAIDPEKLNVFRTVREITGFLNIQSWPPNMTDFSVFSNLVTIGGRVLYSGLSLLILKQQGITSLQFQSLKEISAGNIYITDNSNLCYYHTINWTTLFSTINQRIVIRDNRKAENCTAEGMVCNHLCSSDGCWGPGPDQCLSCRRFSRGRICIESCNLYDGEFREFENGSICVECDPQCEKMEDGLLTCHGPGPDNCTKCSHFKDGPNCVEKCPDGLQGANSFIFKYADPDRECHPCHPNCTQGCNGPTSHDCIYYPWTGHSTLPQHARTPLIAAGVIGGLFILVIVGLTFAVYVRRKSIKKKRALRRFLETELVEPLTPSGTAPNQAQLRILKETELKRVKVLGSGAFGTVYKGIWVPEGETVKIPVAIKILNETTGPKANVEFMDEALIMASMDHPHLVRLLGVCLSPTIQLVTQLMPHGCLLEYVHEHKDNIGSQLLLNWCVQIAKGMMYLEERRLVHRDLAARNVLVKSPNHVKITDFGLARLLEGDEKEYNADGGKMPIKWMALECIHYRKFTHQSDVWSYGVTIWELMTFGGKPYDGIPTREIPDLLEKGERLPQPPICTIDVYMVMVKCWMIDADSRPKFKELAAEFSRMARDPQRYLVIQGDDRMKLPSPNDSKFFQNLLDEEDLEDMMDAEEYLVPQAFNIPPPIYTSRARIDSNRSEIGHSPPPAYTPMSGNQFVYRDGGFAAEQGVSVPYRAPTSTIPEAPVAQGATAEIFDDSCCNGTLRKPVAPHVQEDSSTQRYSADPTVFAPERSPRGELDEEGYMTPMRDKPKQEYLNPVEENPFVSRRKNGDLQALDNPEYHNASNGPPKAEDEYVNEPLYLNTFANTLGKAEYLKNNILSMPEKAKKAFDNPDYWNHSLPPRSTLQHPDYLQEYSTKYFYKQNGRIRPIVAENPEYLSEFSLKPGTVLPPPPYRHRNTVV

B1: MAK<humanHER3> M-7.2.42 (antibody, V domains shown)
VH: EVQLLQSGPELVKPGASVKMSCKASGYTFTDYNLHWVKQSHGRTLEWIGYFNPYNGGTFYTQKFKDKATLTINKSSSTAYMELRSLTSEDSAVYYCTRRYFDGSSYFDYWGQGTTLTVSS
VL: DVLMTQTPLSLPVSLGDQASISCRSSQTIVHSNGNTYLEWYVQKPGQSLKLLIYKVSNRFSGVPDRFSGSGSGTDFTLKISRVEAEDLGVYYCFQGSHVPRAFGGGTKLEIKR
notes: Tested as crude hybridoma supernatant in the Biacore screening; also called HER3 monoclonal antibody MAK<humanHER3> M-7.2.42
Consider B1, for which the values for the binding result in test [1], in test [2] and in test [3] were “no binding (tested: lng/ml (so in the source))”, “no binding” and “no binding”, respectively. In test [4], this molecule came in with a koff of 4.26e-05 s⁻¹. The t½ diss in test [4] amounted to 4.52 h.

B2: MAK<humanHER3> M-7.3.8 (antibody, V domains shown)
VH: EVQLQQSGPELAKPGASVKMSCKASGYTFTDYNLHWVKQSHGKTLEWIGYFNTYNGGIFYTQKFKDKATLTINKSSSTAYMELRSLTSEDSAVYYCTRRYFDGSSYFDYWGRGTTLTVSS
VL: DVLMTQIPLSLPVSLGDQASISCRSSQSIVHSNGNTYLEWYVQKPGQSPKLLIYKVSNRFSGVPDRFSGSGSGTDFTLKISRVEAEDLGVYYCFQGSHAPRTFGGGTKLEIKR
notes: Tested as crude hybridoma supernatant in the Biacore screening; also called antibody 7.3.8; HER3 monoclonal antibody MAK<humanHER3> M-7.3.8
On to B2, for which the binding result in test [2], in test [3] and in test [5] was “no binding” throughout. In addition, the koff in test [4] is 2.66e-05 s⁻¹. Further, in test [4], the t½ diss came out at 7.25 h.

What is called koff is the rate constant with which the complex falls apart.
